Laboratory results published in the nanobody polyreactivity screen of Harvey et al. (2022).

Assay: yeast display, Sf9 membrane polyspecificity reagent, FACS + sequencing; frameworks hold sequencing errors
Summary of the method: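 A synthetic nanobody library was expressed on Saccharomyces cerevisiae BJ5465 by galactose induction for 36–48 hours. The library was stained for 1 hour at 4 °C with 10% biotinylated, detergent-solubilized Sf9 membrane reagent and enriched with streptavidin microbeads before FACS. Low and high (top ~1%) gates were set on anti-HA fluorescence for expression and streptavidin fluorescence for reagent binding, and each polyreactivity label reflects the gate of origin.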

Sequence	polyreactivity (PSR sort gate)
QVQLVESGGGLVQAGGSLRLSCAASGRTFGLYAMGWYRQAPGKERELVAAISWGGGRTYYADSVKGRFTISRDNAKNTVYLQMNSLKPEDNAVYYCNAVYSPRYYVGGYDYWGQGTQVTVSS	high polyreactivity
QVQLVESVGGIVQAGGSLRLTCAASGSIIKRNAMGWYRQAPGKERELVATISSGDGSTRYADSVKGRFTISRDNAKNTVYLQMNSLKPEDTAVYYCARDFTYTYYRWKTPYRIGHDYWGQGTQVTVSS	low polyreactivity
QVQLVESPGGLVKAGGSLRLSCDASGRTFYGYAMGWYRQPPGKEREFVAAITWSGSSTNYADSVKGRFTISRDNATNSVYLQMNSLKPDDTAVYYCAASYYAPYWSMDNWGQGTQETVSS	high polyreactivity
QVQLVESGGGLVQAGASLRLSCAASGITLYLYDMGWYRQAPGKERELVASITSDGSTDYADSVKGRFTISRDNAKNTVFLQMNSLKPEDTAVYYCIARVTYSWYRFGRSGDDSWGQGSQVTVSS	low polyreactivity
QVQHVESGGGLVQAGGSLRLSCAASGSIFTDYAMGWYRQAPGHDRELVAAITLGGNTNYADSVKGRFTISRDNAKHSVYLEMISLLREDTAVYDCATGGYYSAIVYGGYDVWGQGTQVTVSS	low polyreactivity
QVQLVESGGGLVQAGGSLRLSCAASGITFYYYAMGWYRQAPGKERELVAAISSRGGSTYYADSVKGRFTISRDNAKNTVYLQMNSLKPEDTAVYYCAALYDYWGQGTQVTVSS	high polyreactivity
QVHVVESGGGLVQAGGSLRLSCAASGFTFGNNAIGWYRQAPGKERELVAGISRTGGRTYYADSVKGRFTISRDNAMNTVFLPMNSLKPEDTAVFYCAKAFRGHYWGQGTQVNVSS	high polyreactivity
QVQLVESGGGLVEAGGSLRLSCAASGSTFRYYAMGWYRQAPGKERELFAAITWSGGSTNYADSVKGRFTISRDNAKNTFYLQMNSLKPEDTAVYYCNARYLYRHSRYARYDSWGQGTQVTVSS	high polyreactivity
QVQLVESGGGLVQAGGSLRLSCAASGRIFQPNAMGWYRQATGNERELVAAISSSGGRTYYADSVKGRFTISRDNAKNTVYLQMNSLKPEDTAVYYCNAGGYRYRSYDYWGQGNQVTVSS	high polyreactivity
QVQLVESGGGLVQAGGSLRLSCAASGRILGFYAMGWYRQAPGKERELDARINWSGTRTYYADSVKGRFTISRDNAKNTVYLQMNSLKPEDTAVYYCAAERYPYGVTYSKLDYWGQGTQVTVSS	high polyreactivity
QVQVVESGGGLVQAGGSLRLSCAASGSTFFFYAMGWYIHAPGKERELVAAISSTGRKYYADSVKGRFTISRDNAKNTVYLQMNSLTPEDTAVYYCAARIYSGYSYWGQCTQVTVSS	high polyreactivity
QVQLGESGGGLVQAGGSLRLSCAASGFTFYRYTLGWYRQAPGKERELVASITRRGGSTYYADSVKGRFTISRDNAKNYVYLQMNSLKPEDTAVYDCNAATPVWQSGTYEYWGQGTQVTVSS	high polyreactivity
QVHLVESGRGLFQAGGSLRLSCAASGRIFPGYAMGWSRQAPGKESELVAGITWRTARTYYAYSVKGRFTISRDIAKNTVYLQMNSLKPEDTAVYYCAAKYARYGRDVIFDYWGQGTEVTVSS	high polyreactivity
QVQLVESGGGLVQGGGSLRLSCAASGSIFTYNAIRSYRQAPGKERELVAAINTSGSTNYADSVKGRFTLSRDNAKNTVYLQMNSVKPEVTAVYYCAAGIVVTGYDYWGHGTQVTVSS	low polyreactivity
QVQLVESGGGLVQAGGSLRLSCAASGSIFYRNAMGWYRQAPGKERELVAAISSDGSTNYADSVKGRFTISRDNAKNTVYLQMNSLKPEDTAVYYCNVPYYLPSYLSGYDYWGQGTQVTVSS	low polyreactivity
QVQLVESGGGLVQAGGSLRLSCAASGRTSVRYAMGWYRQAPGKERELVAAISWSGGSTYYADSVKGRFTISRDNAKNTDYLQMNSLKAEDTAVYYCNAQHARGYYYWGQGTQVTVSS	low polyreactivity

Sequence	polyreactivity (PSR sort gate)
QVQLVESGGGLVQAGGSLRLSCAASGNIFDRYAMGWYRQAPGKERELVAGITWSGGSTYYADSVKGRFTISRDNAKNTVYFQMTSLKPEDTAVYYCGKANYYWGQGTQVTVSS	low polyreactivity
QVQLVESGGGLVQAGGSLRLSCAASGFTLARYAMGWYRPAPGKERELVAALTQSGVSTYYADSVKGRFTISRDNAKNTVYLQMNSLKPEDTAVYYCNALLRRTDYRYTWGYGYWGQGTQVTVSS	high polyreactivity
QVQLVESGGGLVQAGGSLRLSCAASGSTFSEYAMGWYRQAPGKERELVAAISETGGRTYYADSVKGRFTISRDNAKNTVYLQMNSLKPEDTAVYYCAVDHLTRSGDGEYWGQGTQVTVSS	high polyreactivity
QGQPVESGGGLVQAGGILRLSCAASGFISGGNAMGWDRQAPGKEREFVAAIDNTGSTYYADSVKGRFTISRDNEKNTVYLQMISLKPEDTAVYYFNAEVTEDYVDNDYGGQGTQVTVSS	low polyreactivity
QVQLVESGGGLVQAGGSLRLSCAASGSTFTRYAMGWYRQAPGKEREFVAGISWRGGSTYYADSVKGRFTISRDNAKNTVYFQMNSLKPEDTAVYYCAARSFSNIGYHGYGYWGQGTQVTVSW	high polyreactivity
QVQLVESGGGLVQAGGSLRLSCAASGSIFLPYAMGWYRQAPGKERELVAAIDTSSGSTYYADSVKGRFTISRDNAKNTVYLQMNSLKPEDTAVYYCNADYWVQGDDWLLYDYWGQGTQVTVSS	low polyreactivity
QVQLEESGGGVVQAGGSLRLSCAASGIIFYRYAMGCYRQAPGKERELVAAISKNGGRTYYADSVKGRFTISRDNAKNTVYLQMNSLKPEDTAVYYCNARYGYYLYWGQGTQVTVSS	high polyreactivity
QVQLQECGGALVQAGGSLRLSCAASGTFSNSEKWLYCQAPGKERELVSTIGVGGSTNYADSVKGRFTISRDNAKNTVYLQLNSLKPEDTAVYHCAAYGAASYFHYYRGQGTQVTVSS	low polyreactivity
QVQLVESGGGLVQAGGSLRLSCAASGSTFQPNAMGWYRQAPGKERELVAAITGGDNTNYADSVKGRFTISRDNAKNTVYLQMNSLKPEDTAVYYCAAGGLGSRWYVGYDYWGQGTQVTVSS	low polyreactivity
QVQLQESGGGMVQAGGSLRLSRATSGTISATKGMCRYRQAPGKERELVAGINYGGNTNYADNVKGRFTISRDNAKNTVYLQMNSLKPGDTAVYYCAAEPRGVTDLGYWGQGTQVTVSS	low polyreactivity
QVQLVESGGGLVQAGASLRLSCAASGSIFDPYAMGWYRQAPGKERQLVAAITYSVGGTTYYADSVKGRFTISRDNAKNTVYLQMNSLKPEDTAVYYCAAEWWGTPFDYWGQGTQVTVSS	high polyreactivity
QVQLVESGGGLVQAGGSLRLSCAASGSIFTVNAMGWYRQAPGKEMEFVAAITGGGTSTYYADSVKGRFTISRDNAKNTVYLQMNSLTPEVTAVYYCAATTYHYSPTYGYWGQGTQVTVSS	low polyreactivity
QVQLVESGGGLVQAGGSLRLSCAASGRTFNFYAMGWYRQAPGKERELVAAISRTGGITYYADSVKGRFTISRDNAKNTVYLQMNSLKPEDTAVYYCNAEYIYYYPTDPYTYYYWGQGTQVTVSS	low polyreactivity
QVQLVESGGGLVQAGGSLRLSCAASGSTFVIYGMGWYRQAPGKERELVADITWIGGSTYYADSVKGRFTISRDNAKNTVYLQMNSLKPEDTAVYYCNADVRYGRDHWGQGTQVTVSS	low polyreactivity
QVQLVESGGGLVQAGGSLRLSSAASGRTFGFYAMGCYRQAHGKERELVATISSSGGSTYYADSVKGRFTISRDNAKNTVYLQMNRLTPEDTAVYYCAKVVSVWRSHYIGDYWGQGSQVTVSS	low polyreactivity
QVQLVESGGGLVQAGGSLRLSCAATGIIFYRNAMGWYRQAPGKERELVASISKRGGSTYYADSVKGRFTISRDNAKNTVYLQMNSLKPEDNAVYYCNTRGGIARQFEIYSWGQGTQVTLSS	high polyreactivity
